Assay results reported in paper PMC11719849, “Allosteric modulation of the Lon protease via ssDNA binding and local charge changes”.
Changes are numbered by the printed parent chain.

T1: Lon (wild type) (Caulobacter crescentus, UniProt P0CAW0 1-799)
T1 sequence: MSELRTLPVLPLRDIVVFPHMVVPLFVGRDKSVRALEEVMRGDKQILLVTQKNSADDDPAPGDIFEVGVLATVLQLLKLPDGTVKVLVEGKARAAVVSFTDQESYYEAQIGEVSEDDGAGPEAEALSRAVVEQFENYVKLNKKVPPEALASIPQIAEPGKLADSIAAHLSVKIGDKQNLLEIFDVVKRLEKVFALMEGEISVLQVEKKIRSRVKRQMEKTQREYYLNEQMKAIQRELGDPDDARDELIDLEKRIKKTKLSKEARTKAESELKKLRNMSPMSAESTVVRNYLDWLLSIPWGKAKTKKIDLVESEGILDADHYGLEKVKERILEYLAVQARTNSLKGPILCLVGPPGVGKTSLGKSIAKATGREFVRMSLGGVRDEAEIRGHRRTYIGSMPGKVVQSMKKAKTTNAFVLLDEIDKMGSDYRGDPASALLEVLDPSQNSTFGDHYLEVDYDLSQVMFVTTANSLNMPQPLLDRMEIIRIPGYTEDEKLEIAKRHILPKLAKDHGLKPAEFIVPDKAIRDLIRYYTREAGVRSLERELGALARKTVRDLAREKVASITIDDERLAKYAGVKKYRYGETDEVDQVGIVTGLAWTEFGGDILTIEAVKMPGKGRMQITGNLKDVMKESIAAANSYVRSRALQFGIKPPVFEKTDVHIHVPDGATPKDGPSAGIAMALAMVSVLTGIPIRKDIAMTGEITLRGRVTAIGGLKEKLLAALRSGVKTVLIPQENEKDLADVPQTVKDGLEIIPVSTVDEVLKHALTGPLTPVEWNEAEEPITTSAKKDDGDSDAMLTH

T2: Lon4E (Caulobacter crescentus, UniProt P0CAW0 1-799, K301E;K303E;K305E;K306E)
T2 sequence: T1 sequence with K301E, K303E, K305E, K306E

T3: Lon4A (Caulobacter crescentus, UniProt P0CAW0 1-799, K301A;K303A;K305A;K306A)
T3 sequence: T1 sequence with K301A, K303A, K305A, K306A


What was measured:
Lon (wild type) = molecular target: T1, Lon (wild type); assay: mass photometry; 200 nM Lon monomer; shift to HMW, median 592 kDa vs 515 kDa, consistent with one ssDNA per protomer; FP: 25 mM HEPES pH 7.5, 10 mM MgCl2, 100 mM KCl, 0.05% Tween-20, 30 C, 0.1 uM Lon (hexamer), 25 nM DNA; mass photometry in TK buffer, 200 nM Lon; settings: protein: recombinant; chain copies: 6
Lon4E = molecular target: T2, Lon4E; assay: fluorescence polarization; 0.1 uM Lon4E, 25 nM FAM-ssDNA; FP: 25 mM HEPES pH 7.5, 10 mM MgCl2, 100 mM KCl, 0.05% Tween-20, 30 C, 0.1 uM Lon (hexamer), 25 nM DNA; mass photometry in TK buffer, 200 nM Lon; settings: protein: recombinant; chain copies: 6; label: FAM (printed at 5' side)
Lon4A = molecular target: T3, Lon4A; assay: fluorescence polarization; 0.1 uM Lon4A, 25 nM FAM-ssDNA; FP: 25 mM HEPES pH 7.5, 10 mM MgCl2, 100 mM KCl, 0.05% Tween-20, 30 C, 0.1 uM Lon (hexamer), 25 nM DNA; mass photometry in TK buffer, 200 nM Lon; settings: protein: recombinant; chain copies: 6; label: FAM (printed at 5' side)

Binder | binding result (Lon (wild type)) | binding result (Lon4E) | binding result (Lon4A)
TCGATTCTCGAGTTAGTCGTCTTCTGGTGCCGGAAA (ssDNA) [OPC698-Stim] | binds |  | 
AACGGATGATCCACAGGAGAGTCTGGCGCAGGGCGAGAG (ssDNA) [FAM-ssDNA (G1Box top strand)] |  | no binding | no binding
